Laboratory results reported in paper doi:10.1101/2024.07.30.605799 (bioRxiv, 2024).
Like-named read-outs stand apart in the source and are kept apart here.

Assays:
SEC [1] = target: the molecule itself; assay: SEC
SEC [2] = target: the molecule itself; assay: SEC; remark: listed apart in the source

B1: human CAD ATC domain bearing P2186S (domain or fragment, UniProt P27708 1917-2225, looked up)
chain: LLHSLVGQHILSVQQFTKDQMSHLFNVAHTLRMMVQKERSLDILKGKVMASMFYEVSTRTSSSFAAAMARLGGAVLSFSEATSSVQKGESLADSVQTMSCYADVVVLRHPQPGAVELAAKHCRRPVINAGDGVGEHPTQALLDIFTIREELGTVNGMTITMVGDLKHGRTVHSLACLLTQYRVSLRYVAPPSLRMPPTVRAFVASRGTKQEEFESIEEALPDTDVLYMTRIQKERFGSTQEYEACFGQFILTPHIMTRAKKKMVVMHPMSRVNEISVEVDSDPRAAYFRQAENGMYIRMALLATVLGRF
stoichiometry N (SEC [1]): 3

B2: human CAD dihydroorotase (DHO) domain, wild type (domain or fragment, UniProt P27708 1456-1846, looked up)
chain: MTSQKLVRLPGLIDVHVHLREPGGTHKEDFASGTAAALAGGITMVCAMPNTRPPIIDAPALALAQKLAEAGARCDFALFLGASSENAGTLGTVAGSAAGLKLYLNETFSELRLDSVVQWMEHFETWPSHLPIVAHAEQQTVAAVLMVAQLTQRSVHICHVARKEEILLIKAAKARGLPVTCEVAPHHLFLSHDDLERLGPGKGEVRPELGSRQDVEALWENMAVIDCFASDHAPHTLEEKCGSRPPPGFPGLETMLPLLLTAVSEGRLSLDDLLQRLHHNPRRIFHLPPQEDTYVEVDLEHEWTIPSHMPFSKAHWTPFEGQKVKGTVRRVVLRGEVAYIDGQVLVPPGYGQDVRKWPQGAVPQLPPSAPATSEMTTTPERPRRGIPGLPD
modifications: carboxylated lysine K1556
stoichiometry N (SEC [2]): 2

B3: human CAD DHO domain bearing H1687R (domain or fragment, UniProt P27708 1456-1846, looked up)
chain: MTSQKLVRLPGLIDVHVHLREPGGTHKEDFASGTAAALAGGITMVCAMPNTRPPIIDAPALALAQKLAEAGARCDFALFLGASSENAGTLGTVAGSAAGLKLYLNETFSELRLDSVVQWMEHFETWPSHLPIVAHAEQQTVAAVLMVAQLTQRSVHICHVARKEEILLIKAAKARGLPVTCEVAPHHLFLSHDDLERLGPGKGEVRPELGSRQDVEALWENMAVIDCFASDRAPHTLEEKCGSRPPPGFPGLETMLPLLLTAVSEGRLSLDDLLQRLHHNPRRIFHLPPQEDTYVEVDLEHEWTIPSHMPFSKAHWTPFEGQKVKGTVRRVVLRGEVAYIDGQVLVPPGYGQDVRKWPQGAVPQLPPSAPATSEMTTTPERPRRGIPGLPD
stoichiometry N (SEC [2]): 2

B4: human CAD DHO domain bearing S1538L (domain or fragment, UniProt P27708 1456-1846, looked up)
chain: MTSQKLVRLPGLIDVHVHLREPGGTHKEDFASGTAAALAGGITMVCAMPNTRPPIIDAPALALAQKLAEAGARCDFALFLGALSENAGTLGTVAGSAAGLKLYLNETFSELRLDSVVQWMEHFETWPSHLPIVAHAEQQTVAAVLMVAQLTQRSVHICHVARKEEILLIKAAKARGLPVTCEVAPHHLFLSHDDLERLGPGKGEVRPELGSRQDVEALWENMAVIDCFASDHAPHTLEEKCGSRPPPGFPGLETMLPLLLTAVSEGRLSLDDLLQRLHHNPRRIFHLPPQEDTYVEVDLEHEWTIPSHMPFSKAHWTPFEGQKVKGTVRRVVLRGEVAYIDGQVLVPPGYGQDVRKWPQGAVPQLPPSAPATSEMTTTPERPRRGIPGLPD
modifications: carboxylated lysine K1556
stoichiometry N (SEC [2]): 2

B5: human CAD DHO domain bearing W1581R (domain or fragment, UniProt P27708 1456-1846, looked up)
chain: MTSQKLVRLPGLIDVHVHLREPGGTHKEDFASGTAAALAGGITMVCAMPNTRPPIIDAPALALAQKLAEAGARCDFALFLGASSENAGTLGTVAGSAAGLKLYLNETFSELRLDSVVQWMEHFETRPSHLPIVAHAEQQTVAAVLMVAQLTQRSVHICHVARKEEILLIKAAKARGLPVTCEVAPHHLFLSHDDLERLGPGKGEVRPELGSRQDVEALWENMAVIDCFASDHAPHTLEEKCGSRPPPGFPGLETMLPLLLTAVSEGRLSLDDLLQRLHHNPRRIFHLPPQEDTYVEVDLEHEWTIPSHMPFSKAHWTPFEGQKVKGTVRRVVLRGEVAYIDGQVLVPPGYGQDVRKWPQGAVPQLPPSAPATSEMTTTPERPRRGIPGLPD
stoichiometry N (SEC [2]): 2

B6: human CAD DHO domain bearing S1538A (domain or fragment, UniProt P27708 1456-1846, looked up)
chain: MTSQKLVRLPGLIDVHVHLREPGGTHKEDFASGTAAALAGGITMVCAMPNTRPPIIDAPALALAQKLAEAGARCDFALFLGAASENAGTLGTVAGSAAGLKLYLNETFSELRLDSVVQWMEHFETWPSHLPIVAHAEQQTVAAVLMVAQLTQRSVHICHVARKEEILLIKAAKARGLPVTCEVAPHHLFLSHDDLERLGPGKGEVRPELGSRQDVEALWENMAVIDCFASDHAPHTLEEKCGSRPPPGFPGLETMLPLLLTAVSEGRLSLDDLLQRLHHNPRRIFHLPPQEDTYVEVDLEHEWTIPSHMPFSKAHWTPFEGQKVKGTVRRVVLRGEVAYIDGQVLVPPGYGQDVRKWPQGAVPQLPPSAPATSEMTTTPERPRRGIPGLPD
stoichiometry N (SEC [2]): 2
